Experimental data published in patent US10774129B2, “Complexes of types of MHC class II that bind to collagen type II peptides and their use on diagnosis and treatment” (FRAUNHOFER-GESELLSCHAFT ZUR FÖRDERUNG DER ANGEWANDTEN …, priority 2011, dated 2020).
Square brackets hold non-standard residues; d marks the D form. Ends that are not written are not given here. Cit = NC(=O)NCCC[C@H](N)C(=O)O

Columns and labels:
[1] = target: MHC class II of the HLA DRB1 0101 genotype (Homo sapiens, UniProt P01903+P01911, A100R/D57E/F55L/F60I/F76Y/I96L/L162R/M171V/P40L/Q125E/R42F/V115G/Y59C); assay: in vitro binding assay to recombinant MHC class II protein; set-up: key: *0101: the listing of the allele in the column for the allele indicates binding; *0401: “0401” in the “Binds to 0401” column indicates binding of the peptide to MHC class II of the HLA DRB1 0401 genotype; *0404: the listing of the allele in the column for the allele indicates binding; *0405: the listing of the allele in the column for the allele indicates binding; *0408: the listing of the allele in the column for the allele indicates binding; *1001: the listing of the allele in the column for the allele indicates binding; “no” or no data indicates no binding to a protein of that genotype
Source text: (§1) Binding of the peptides to recombinant MHC class II protein of various alleles has been confirmed in an in vitro binding assay and the results are shown in Tables 1, 2 and 3. In table 1, 2 and 3, the listing of the allele in the column for the allele indicates binding. Thus “0401” in the “Binds to 0401” column indicates binding of the peptide to MHC class II of the HLA DRB1 0401 genotype. “no” or no data indicates no binding to a protein of that genotype. Empty boxes indicate no binding or that binding has not been determined. In the tables it is also indicated if the peptide has a citrulline residue, where “yes” indicates the presence of a citrulline residue and “no” indicates the absence of a citrulline residue.

[2] = target: MHC class II of the HLA DRB1 0404 genotype (Homo sapiens, UniProt P01903+P01911, A100R/A169T/F76Y/I96L/K127E/L162R/M171V/N62H/P40V/Q125Y/R42H/S133A/S149N/S66Y/V209L/W38E); assay: as above; set-up: key: *0101: the listing of the allele in the column for the allele indicates binding; *0401: “0401” in the “Binds to 0401” column indicates binding of the peptide to MHC class II of the HLA DRB1 0401 genotype; *0404: the listing of the allele in the column for the allele indicates binding; *0405: the listing of the allele in the column for the allele indicates binding; *0408: the listing of the allele in the column for the allele indicates binding; *1001: the listing of the allele in the column for the allele indicates binding; “no” or no data indicates no binding to a protein of that genotype
Source text: as §1

[3] = target: MHC class II of the HLA DRB1 0405 genotype (Homo sapiens, UniProt P01903+P01911, A100R/A169T/D86S/F76Y/I96L/K127E/L162R/M171V/N62H/P40V/Q125Y/R42H/S133A/S149N/S66Y/V115G/V209L/W38E); assay: as above; set-up: key: *0101: the listing of the allele in the column for the allele indicates binding; *0401: “0401” in the “Binds to 0401” column indicates binding of the peptide to MHC class II of the HLA DRB1 0401 genotype; *0404: the listing of the allele in the column for the allele indicates binding; *0405: the listing of the allele in the column for the allele indicates binding; *0408: the listing of the allele in the column for the allele indicates binding; *1001: the listing of the allele in the column for the allele indicates binding; “no” or no data indicates no binding to a protein of that genotype
Source text: as §1

[4] = target: MHC class II of the HLA DRB1 0401 genotype (Homo sapiens, UniProt P01903+P01911, A100K/A169T/F76Y/I96L/K127E/L162R/M171V/N62H/P40V/Q125Y/R42H/S133A/S149N/S66Y/V115G/V209L/W38E); assay: as above; set-up: key to Binds to 0401: *0101: the listing of the allele in the column for the allele indicates binding; *0401: “0401” in the “Binds to 0401” column indicates binding of the peptide to MHC class II of the HLA DRB1 0401 genotype; *0404: the listing of the allele in the column for the allele indicates binding; *0405: the listing of the allele in the column for the allele indicates binding; *0408: the listing of the allele in the column for the allele indicates binding; *1001: the listing of the allele in the column for the allele indicates binding; “no” or no data indicates no binding to a protein of that genotype; conditions: for Binds to 0401: recombinant MHC class II, HLA DRB1 0401
Source text: as §1
Thus for these peptides no binding to HLA-DR0401 was observed when citrulline was exchanged with the original amino acid arginine (Table 4). No binding of the citrullinated peptides was seen to HLA-DR 03 or 02 variants.

[5] = tested on: MHC class II of the HLA DRB1 0408 genotype; assay: as above; set-up: species or system human; key: *0101: the listing of the allele in the column for the allele indicates binding; *0401: “0401” in the “Binds to 0401” column indicates binding of the peptide to MHC class II of the HLA DRB1 0401 genotype; *0404: the listing of the allele in the column for the allele indicates binding; *0405: the listing of the allele in the column for the allele indicates binding; *0408: the listing of the allele in the column for the allele indicates binding; *1001: the listing of the allele in the column for the allele indicates binding; “no” or no data indicates no binding to a protein of that genotype
Source text: as §1

[6] = tested on: MHC class II of the HLA DRB1 1001 genotype; assay: as above; set-up: species or system human; key to Binds to 1001: *0101: the listing of the allele in the column for the allele indicates binding; *0401: “0401” in the “Binds to 0401” column indicates binding of the peptide to MHC class II of the HLA DRB1 0401 genotype; *0404: the listing of the allele in the column for the allele indicates binding; *0405: the listing of the allele in the column for the allele indicates binding; *0408: the listing of the allele in the column for the allele indicates binding; *1001: the listing of the allele in the column for the allele indicates binding; “no” or no data indicates no binding to a protein of that genotype; conditions: recombinant MHC class II, HLA DRB1 1001
Source text: as §1

[7] = tested on: PBMCs (CD4+ T cells) from rheumatoid arthritis patients with HLA genotype HLA DRB1-0401; assay: T-cell activation in PBMCs, intracellular cytokine staining and CD154 by flow cytometry; type: cell-based, human; conditions: 5 to 50 ug/ml, 5-day incubation

“a-enolase 38: human alpha-enolase peptide, not citrullinated (AEVYHNLKNVIKEKY; listed as Homo sapiens)” was tested, and the “Binds to 0101” value [1] was “*0101”, the “Binds to 0404” value [2] was “no” and the “Binds to 0405” value [3] was “*0405”. For the same substance, the “Binds to 0401” value [4] was “*0401”, the “Binds to 0408” value [5] was “*0408” and the “Binds to 1001” value [6] was “no”.

In the case of “a-enolase 1: human alpha-enolase peptide, not citrullinated (MSILKIHAREIFDSR; listed as Homo sapiens)”, the “Binds to 0101” value [1] is reported as “*0101”, the “Binds to 0404” value [2] is reported as “*0404” and the “Binds to 0405” value [3] is reported as “*0405”. For the same substance, the “Binds to 0401” value [4] was “no”, the “Binds to 0408” value [5] was “no” and the “Binds to 1001” value [6] was “*1001”.

With “a-enolase 80: human alpha-enolase peptide, not citrullinated (GAPCRSERLAKYNQL; listed as Homo sapiens)” the “Binds to 0101” value [1] was “*0101”, the “Binds to 0404” value [2] was “no” and the “Binds to 0405” value [3] was “*0405”. For the same substance, the “Binds to 0401” value [4] was “no”, the “Binds to 0408” value [5] was “*0408” and the “Binds to 1001” value [6] was “no”.

For “a-enolase 12: human alpha-enolase peptide, not citrullinated (RYMGKGVSKAVEHIN; listed as Homo sapiens)”, the “Binds to 0101” value [1] was “*0101”, the “Binds to 0404” value [2] was “no” and the “Binds to 0405” value [3] was “*0405”. For the same substance, the “Binds to 0401” value [4] was “no”, the “Binds to 0408” value [5] was “*0408” and the “Binds to 1001” value [6] was “*1001”.

With “a-enolase 57: human alpha-enolase peptide, not citrullinated (KSFIKDYPVVSIEDP; listed as Homo sapiens)” the “Binds to 0101” value [1] was “*0101”, the “Binds to 0404” value [2] was “*0404” and the “Binds to 0405” value [3] was “*0405”. For the same substance, the “Binds to 0401” value [4] was “*0401”, the “Binds to 0408” value [5] was “*0408” and the “Binds to 1001” value [6] was “*1001”.

In the case of “a-enolase 36: human alpha-enolase peptide, not citrullinated (ANFREAMRIGAEVYH; listed as Homo sapiens)”, the “Binds to 0101” value [1] is reported as “*0101”, the “Binds to 0404” value [2] is reported as “no” and the “Binds to 0405” value [3] is reported as “*0405”. For the same substance, the “Binds to 0401” value [4] was “no”, the “Binds to 0408” value [5] was “no” and the “Binds to 1001” value [6] was “no”.

In the case of “a-enolase 49: human alpha-enolase peptide, not citrullinated (VIGMDVAASEFFRSG; listed as Homo sapiens)”, the “Binds to 0101” value [1] is reported as “no”, the “Binds to 0404” value [2] is reported as “*0404” and the “Binds to 0405” value [3] is reported as “*0405”. The “Binds MHC in vitro” value ([4]; HLA tested *0401) was “yes”, the “Binds to 0401” value [4] was “*0401” and the “Binds to 0408” value [5] was “*0408”. For the same substance, the “Binds to 1001” value [6] was “no”, the “double staining for CD154 and at least one cytokine (IFNgamma, IL-17A, TNF alpha), activation of T-cells” value ([7]; HLA DRB1-0401 patients) was “double stained positive for both CD154 and at least one cytokine” and the “Activation of T-cells” value ([7]; HLA tested *0401, yes = all patients positive for at least one cytokine) was “yes”.

In the case of “a-enolase 45: human alpha-enolase peptide, not citrullinated (KEGLELLKTAIGKAG; listed as Homo sapiens)”, the “Binds to 0101” value [1] is reported as “*0101”, the “Binds to 0404” value [2] is reported as “*0404” and the “Binds to 0405” value [3] is reported as “*0405”. The “Binds to 0401” value [4] was “*0401”, the “Binds to 0408” value [5] was “*0408” and the “Binds to 1001” value [6] was “no”.

With “a-enolase 26: human alpha-enolase peptide, not citrullinated (KGVPLYRHIADLAGN; listed as Homo sapiens)” the “Binds to 0101” value [1] was “*0101”, the “Binds to 0404” value [2] was “*0404” and the “Binds to 0405” value [3] was “*0405”. The “Binds to 0401” value [4] was “*0401”, the “Binds to 0408” value [5] was “*0408” and the “Binds to 1001” value [6] was “no”.

“a-enolase 81: human alpha-enolase peptide, not citrullinated (SERLAKYNQLLRIEE; listed as Homo sapiens)” was tested, and the “Binds to 0101” value [1] was “*0101”, the “Binds to 0404” value [2] was “*0404” and the “Binds to 0405” value [3] was “no”. For the same substance, the “Binds to 0401” value [4] was “no”, the “Binds to 0408” value [5] was “no” and the “Binds to 1001” value [6] was “no”.

For “a-enolase 299: citrullinated human alpha-enolase peptide (KGVPLY[Cit]HIADLAGN; listed as Homo sapiens)”, the “Binds to 0101” value [1] was “no”, the “Binds to 0404” value [2] was “no” and the “Binds to 0405” value [3] was “*0405”. For the same substance, the “Binds to 0401” value [4] was “*0401”, the “Binds to 0408” value [5] was “*0408” and the “Binds to 1001” value [6] was “no”.

For “a-enolase 34: human alpha-enolase peptide, not citrullinated (QEFMILPVGAANFRE; listed as Homo sapiens)”, the “Binds to 0101” value [1] was “*0101”, the “Binds to 0404” value [2] was “*0404” and the “Binds to 0405” value [3] was “*0405”. The “Binds to 0401” value [4] was “*0401”, the “Binds to 0408” value [5] was “no” and the “Binds to 1001” value [6] was “no”.

In the case of “a-enolase 69: human alpha-enolase peptide, not citrullinated (LLKVNQIGSVTESLQ; listed as Homo sapiens)”, the “Binds to 0101” value [1] is reported as “no”, the “Binds to 0404” value [2] is reported as “no” and the “Binds to 0405” value [3] is reported as “*0405”. The “Binds to 0401” value [4] was “no”, the “Binds to 0408” value [5] was “no” and the “Binds to 1001” value [6] was “no”.

“a-enolase 15: human alpha-enolase peptide, not citrullinated (KTIAPALVSKKLNVT; listed as Homo sapiens)” was tested, and the “Binds to 0101” value [1] was “*0101”, the “Binds to 0404” value [2] was “*0404” and the “Binds to 0405” value [3] was “no”. The “Binds to 0401” value [4] was “no”, the “Binds to 0408” value [5] was “*0408” and the “Binds to 1001” value [6] was “no”.

With “a-enolase 14: human alpha-enolase peptide, not citrullinated (VEHINKTIAPALVSK; listed as Homo sapiens)” the “Binds to 0101” value [1] was “*0101”, the “Binds to 0404” value [2] was “*0404” and the “Binds to 0405” value [3] was “no”. The “Binds to 0401” value [4] was “no”, the “Binds to 0408” value [5] was “*0408” and the “Binds to 1001” value [6] was “no”.
